The text below walks through data of paper PMC11147780.

Experiment [1] addresses 10E8-iGL3 antibody (fully germline-reverted 10E8). Briefly: SPR. To be noted: chain shown with the change;; read off a plot.
Experiment [2] deals with 10E8 unmutated common ancestor antibody. Briefly: SPR. To be noted: chain shown with the change;; read off a plot.

The term Kd denotes a measure of binding affinity in units of concentration. Low values mean higher affinity, high ones lower affinity.

B1: 10E8-GT9.2 epitope scaffold P41Q (protein)
chain: EVTQEDIIRALASPLIKDGMVDEDFAEYVIEREKRSPTGLQVKGVGVAIPHTLGEYVRDNAISVGILDKPVNFEGWYQSPDPVPVRVVFMLAGRTWDDIVNVLKWIKDVILDEEFMKRLLTMSDEEIYRQIYTRISKAPGMRGIHFKREYVRHLG
Consider B1, for which, in experiment [1], the dissociation constant (Kd) is 8000 nM.

B2: MPER (scaffold without germline-targeting mutations) 10E8-GT11 (substitutions not printed in the panel; sequence in Extended Data Fig. 1h) (protein)
chain: VTQEDIIRALASPLIKDGMVDEDFAEKVIEQESRYPTGLQAKGVGVAIPHTLGDYVRDNAISVGILDKPVNFEGWYQSPDPVPVRVVFMLAIRTWDDIVNVLNWIKDVILDEEFMKRLLTMSDEEIYRQIYTRISKAPQLSGIHFKREYVRHLG
As for B2, the Kd in experiment [2] stood at 1400 nM; in experiment [1], 20000 nM.

B3: MPER (scaffold without germline-targeting mutations) 10E8-GT12 (substitutions not printed in the panel; sequence in Extended Data Fig. 1h) (protein)
chain: ETGNVTQEDIIRALASPLIKDGMVDEDFAEKVIENESRYPSGLQAKGVGFAIPHVLGDYVRDNAISVGILDKPVNFSEWYQSPDPVPVRVVFMLAIRTWDDITNVMNWIKDVVLDEEFMKRLLNMSDEEIYRQIYTRISKAPNLSGINFSREYVRHLNGS
B3: the dissociation constant (Kd) in experiment [2] was determined as 180 nM; in experiment [1], 1800 nM.

B4: MPER (scaffold without germline-targeting mutations) 10E8-GT10.2 (substitutions not printed in the panel; sequence in Extended Data Fig. 1h) (protein)
chain: NVTQEDIIRALASPLIKDGMVDEDFAEYVIARENRSPTGLQAKGVGVAIPHTLGDYVRDNAISVGILDKPVNFSGWYQSPDPVPVRVVFMLAGRTWDDIVIVLKWIKDVILDEEFMKRLLNMSDEEIYRQIYTRISKAPNLSGINFSREYVRHLN
For the molecule B4, the Kd in experiment [2] turned out to be 38 nM; in experiment [1], 11000 nM.
